Data published in the RNAGym collection of RNA variant scans (doi:10.1073/pnas.2313332121).

B1: TPR t1 (parent)
chain: GACCAAUCUGCCCUCAGAGCUCGAGAACAUCUUCGGAUGCAGAGGAGGCAGGCUUCGGUGGCGCGAUAGCGCCAACGUCCUCAACCUCCAAUGCAUCCCACCACAUGAUGAUGCCUGAAGAGCCUUGGUUUUUUG

Variants of: B1
Experiment: polymerase ribozyme fitness, log enrichment relative to wild type (log ratio); higher = more active; in vitro selection for triplet polymerase activity
How it was run: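 Each subunit of a heterodimeric triplet polymerase ribozyme was mutagenized into a library by PCR, transcribed, and subjected to one round of in vitro selection, run in triplicate. Libraries were annealed with a biotinylated primer, the partner subunit and triplets, incubated frozen at −7 °C, and extended constructs were gel-excised, captured on streptavidin beads and recovered by RT-PCR. Input and output libraries were sequenced on Illumina, keeping genotypes with ≥10 input reads and ≥1 read per output. Fitness is log base 2 of genotype enrichment divided by wild-type enrichment, from inverse-variance-weighted replicate averages.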

Going from C11U C79G U92A U106C U112A to C11U U87G G113U, the “polymerase ribozyme fitness (log ratio)” value rises from -5.83 to -4.06.

Compared with C12A G45U G51C G52U U59C C123G, C11U C86A C104U is higher in “polymerase ribozyme fitness (log ratio)” value: -5.71 for the first, -1.37 for the second.

Compared with C12A C40U A111C U131A, C11G G42C is lower in “polymerase ribozyme fitness (log ratio)” value: -0.623 for the first, -1.1 for the second.

Going from C11U A41G C104A C123U U125C to C11G U33G G93U U112A G122U, the “polymerase ribozyme fitness (log ratio)” value falls from -1.19 to -6.28.

Going from C11U C98U to C11G G25C G39A C56A C72G C82A A111C, the “polymerase ribozyme fitness (log ratio)” value falls from -1.79 to -7.55.

Compared with C11G C73U, C11G C73G is lower in “polymerase ribozyme fitness (log ratio)” value: 0.123 for the first, -0.268 for the second.

Going from C11G C115G to C11U C72U A83U C101G, the “polymerase ribozyme fitness (log ratio)” value falls from -1.35 to -1.79.

Going from C12A C34G G122U to C12A C20A G63C G113U C115U U131A, the “polymerase ribozyme fitness (log ratio)” value rises from -5.34 to -3.61.

First: C11G G117U
Second: C11U C97A
The “polymerase ribozyme fitness (log ratio)” value of the first is higher: -1.54 for the first, -4.6 for the second.

Going from C11U U14C U38G to C11U A27U A103U G120C G122U, the “polymerase ribozyme fitness (log ratio)” value falls from -4.03 to -5.67.

Compared with C12A G17U A46G C80G A84G C115A, C12A G19U G42U C70A U92A U112C U129G is lower in “polymerase ribozyme fitness (log ratio)” value: -4.53 for the first, -5.98 for the second.

Compared with C12A C13A U55A G63U U131A, C11U C40U G122A is higher in “polymerase ribozyme fitness (log ratio)” value: -2.53 for the first, 0.00533 for the second.

Compared with C11U C12U A111C G122A, C11U C70A is lower in “polymerase ribozyme fitness (log ratio)” value: -0.0374 for the first, -0.922 for the second.

First: C11U C15G U112A
Second: C12A A37U A105G G122A
The “polymerase ribozyme fitness (log ratio)” value of the first is higher: -2.98 for the first, -3.74 for the second.

First: C11U C70A A121C
Second: C11U A43G
The “polymerase ribozyme fitness (log ratio)” value of the first is higher: 0.0688 for the first, -2.11 for the second.

First: C12A C40U C82G U96C C97U
Second: C11G G36A G47C G117A U129A
The “polymerase ribozyme fitness (log ratio)” value of the first is lower: -6.18 for the first, -4.45 for the second.

First: C12A G47A C72G G93A
Second: C11G G61C A66U A75C C114U
The “polymerase ribozyme fitness (log ratio)” value of the first is lower: -4.15 for the first, -3.81 for the second.

Compared with C11G C123G, C11G C123U is lower in “polymerase ribozyme fitness (log ratio)” value: 0.989 for the first, 0.785 for the second.

Going from C12A G52A C73U A91G to C11U C34G A46U G120A A121G, the “polymerase ribozyme fitness (log ratio)” value falls from -2.04 to -5.6.

Compared with C11U U54A, C11G G52A C94A is higher in “polymerase ribozyme fitness (log ratio)” value: -0.542 for the first, 0.0249 for the second.

First: C11U A26U C49G C73U
Second: C11G C20G C73U U106A G107A
The “polymerase ribozyme fitness (log ratio)” value of the first is higher: -3.93 for the first, -5.37 for the second.

Compared with C12A C88U G110C, C11U G39U C79U G93U is higher in “polymerase ribozyme fitness (log ratio)” value: -4.61 for the first, -2.7 for the second.

Going from C12A C40U A91C to C11G C31G, the “polymerase ribozyme fitness (log ratio)” value falls from -3.09 to -4.32.

First: C11U U21A A27G C70G A105G
Second: C11U U55A C80A C86G C124G
The “polymerase ribozyme fitness (log ratio)” value of the first is lower: -5.92 for the first, -4.52 for the second.

Going from C12A C49A C82A to C11U U96G, the “polymerase ribozyme fitness (log ratio)” value rises from -1.3 to -1.1.

C12A G36C and C12A G36U are within 0.2 log units of each other in “polymerase ribozyme fitness (log ratio)” value: -1.69 for the first, -1.6 for the second.

First: C12A A100C A121C
Second: C11U C15G G36C
The “polymerase ribozyme fitness (log ratio)” value of the first is higher: 1.43 for the first, -7.38 for the second.

First: C11U C12G C15U C70U
Second: C12A C82A
The “polymerase ribozyme fitness (log ratio)” value of the first is lower: -1.83 for the first, -0.699 for the second.

First: C11G G17A G58A U106A U129A
Second: C12A A26U G36A G48C C72U
The “polymerase ribozyme fitness (log ratio)” value of the first is lower: -5.54 for the first, -4.02 for the second.

Compared with C11U A24U G65C A103C A108U A111U, C11U C20A U87A A91C A118U is higher in “polymerase ribozyme fitness (log ratio)” value: -6.52 for the first, -2.95 for the second.

Going from C11U C123U to C11G G77A, the “polymerase ribozyme fitness (log ratio)” value falls from 1.77 to -0.375.

First: C12A A50C C53U A74C
Second: C11G G107U
The “polymerase ribozyme fitness (log ratio)” value of the first is higher: -0.606 for the first, -3.64 for the second.

First: C11G G127C
Second: C11G U59A
The “polymerase ribozyme fitness (log ratio)” value of the first is lower: -0.995 for the first, 0.0952 for the second.

Compared with C11G G63U C88A, C11U G71U C123A is higher in “polymerase ribozyme fitness (log ratio)” value: -1.57 for the first, 1.29 for the second.

Compared with C11G C15A G61U U125G, C12A C20A G63A U87A G122U is lower in “polymerase ribozyme fitness (log ratio)” value: -0.123 for the first, -4.81 for the second.

Going from C12A G17U C20A G42A G45U A90G C123A to C11U G77U U112C, the “polymerase ribozyme fitness (log ratio)” value rises from -4.53 to 1.4.

Going from C11G G39A C49G C53U G69A A75U G120C to C11G C40U G63A, the “polymerase ribozyme fitness (log ratio)” value rises from -2.05 to -1.18.

Going from C11U C12A U14G G36U to C11U G63C C80U, the “polymerase ribozyme fitness (log ratio)” value rises from -4.16 to -2.73.

Compared with C12A C28U C86U C88U C101A A111C, C11G G71U is higher in “polymerase ribozyme fitness (log ratio)” value: -7.09 for the first, 0.0897 for the second.

Compared with C11U, C11G C34U C49A G61A C123U is lower in “polymerase ribozyme fitness (log ratio)” value: -0.381 for the first, -2.15 for the second.

First: C11U C15U G61A U78A G93A
Second: C12A C62A C98A
The “polymerase ribozyme fitness (log ratio)” value of the first is higher: -2.54 for the first, -6.54 for the second.

Compared with C11G C40G C70G C89U, C11G U21A C53A C97G is higher in “polymerase ribozyme fitness (log ratio)” value: -5.83 for the first, -3.53 for the second.
